These results are taken from patent US20080194522A1, “Development of Fluorogenic Substrates For Monoamine Oxidases (Mao-A and Mao-B)” (priority 2004, published 2008).

Where two headings read alike, the source gives them in different places.

Substrate in the data set: NCCc1cc2oc(=O)ccc2cc1N
Description: purified protein, by the assay type.

B1: MAO-A (Homo sapiens) (protein)
chain: MENQEKASIAGHMFDVVVIGGGISGLSAAKLLTEYGVSVLVLEARDRVGGRTYTIRNEHVDYVDVGGAYVGPTQNRILRLSKELGIETYKVNVSERLVQYVKGKTYPFRGAFPPVWNPIAYLDYNNLWRTIDNMGKEIPTDAPWEAQHADKWDKMTMKELIDKICWTKTARRFAYLFVNINVTSEPHEVSALWFLWYVKQCGGTTRIFSVTNGGQERKFVGGSGQVSERIMDLLGDQVKLNHPVTHVDQSSDNIIIETLNHEHYECKYVINAIPPTLTAKIHFRPELPAERNQLIQRLPMGAVIKCMMYYKEAFWKKKDYCGCMIIEDEDAPISITLDDTKPDGSLPAIMGFILARKADRLAKLHKEIRKKKICELYAKVLGSQEALHPVHYEEKNWCEEQYSGGCYTAYFPPGIMTQYGRVIRQPVGRIFFAGTETATKWSGYMEGAVEAGERAAREVLNGLGKVTEKDIWVQEPESKDVPAVEITHTFWERNLPSVSGLLKIIGFSTSVTALGFVLYKYKLLPRS
Turning to B1, the Michaelis-Menten constant (Km) was determined as 30.9 ± 1.8 µM. In addition, where the note is “pH 7.4”, the Michaelis constant (Km) was 31 µM.

B2: MAO-B (Bos taurus) (protein)
chain: MSSKCDVVVVGGGISGMAAAKLLHDSGLNVIVLEARDRVGGRTYTLRNQKVKYVDLGGSYVGPTQNHILRLSKELGLETYKVNEVERLIHHTKGKSYPFRGSFPSVWNPITYLDHNNLWRTMDDMGREIPSDAPWKAPLAEQWDLMTMKELLDKICWTESSKQLAILFVNLCVTAEIHEVSALWFLWYVKQCGGTTRIFSTSNGGQERKFVGGSGQVSERIMDLLGDRVKLERPVIHIDQTGENVLVETLNHELYEAKYVISAVPPVLGMKIHFNPPLPMMRNQLITRVPLGSVIKSIVYYKEPFWRNMDYCGSMIIEGEEAPVAYALDDTKPDGSYPAIIGFILAHKARKLARLTKEERLKKLCDLYAKVLGSQEALHPVHYEEKNWCEEQYSGGCYTSYFPPGIMTQYGRVLRQPVGRIYFAGTETATHWSGYMEGAVEAGERAAREILHAMGKIPEDEIWLPEPESVDVPAKPITTTFLQRHLPSVPGLLKLIGLTTIFSATALGFLAHKRGLLVRI
With B2, the Michaelis-Menten constant (Km) amounted to 510 ± 40 µM. For the same protein, the Michaelis-Menten constant (Km) (pH 7.4) came to 13 µM.
